Data: US20050287527A1, “Quantitative ranking of transient ligand binding to target biomolecules” (National Research Council of Canada, priority 2002, published 2005)
Blank lines part the entries; values can stand above or below the substance they belong to.

What was measured:
[1] = target: T1, human prothrombin (Homo sapiens, UniProt P00734); experiment: 15N CPMG NMR relaxation dispersion of peptide ligand with human prothrombin, fitting of koff; assay type: binding
Protocol: Dried powder of the purified peptide was weighed using a Sartorius Supermicro S4™ balance and dissolved at ˜1.5 mM in an aqueous solution (10% D2O) that was 50 mM in NaCl and 50 mM in sodium phosphate at pH 5.5. Carefully measured volume aliquots of human prothrombin at a stock concentration of 0.3 mM were added to the peptide solution to produce molar ratios of ˜1:45, ˜1:35, and ˜1:30 for the prothrombin and peptide concentrations, respectively.
The core of the NMR relaxation dispersion measurements is the relaxation-compensated CPMG pulse scheme (FIG. 1) (Millet, O., Loria, J. P., Kroenke, C. D., Pons, M., and Palmer, A. G. (2000) J.Am.Chem.Soc. 122, 2867-2877; and Loria, J. P., Rance, M., and Palmer, A. G. (1999) J.Am.Chem.Soc. 121, 2331-2332). A train of ^15N 180° pulses with a separation of 1 ms is applied at 100 ppm off the center of the HSQC spectrum at the beginning of the recycle delay d1 such that the total number of ^15N 180° pulses, 4N, is kept the same for all experiments with different CPMG pulse repetition rates. An XY-16 180° pulse train (Gullion, T., Baker, D. B., and Conradi, M. S. (1990) J.Magn.Reson. 89, 479-484) is also applied to both the ^1H and ^15N nuclei during the two INEPT periods, which limits the decay of exchange-broadened ligand resonances. Further enhancement in sensitivity was achieved by using the 3919 WATERGATE sequence for water suppression (Piotto, M., Saudek, V., and Sklenar, V. (1992) J.Biomol.NMR 2, 661-665). The 90° and 180° RF pulses are represented by narrow and wide bars, respectively, applied along the +X axis unless specified otherwise. The open rectangles are water-selective soft pulses with duration of 2 ms. During data acquisition, ^15N decoupling is achieved using a GARP sequence (Shaka, A. J., Barker, P. B., and Freeman, R. (1985) J.Magn.Reson. 64, 547-552) with an RF field of 1.0 kHz (at 500 MHz) or 1.2 kHz (at 800 MHz). The delays are: Δ=2.7 ms, τ=1 ms, d2=d1-4(N-n)τ and τCPMG=(T/4n−pw180N), where T is the total duration of the ^15N CPMG pulse train and pw^180N is the width of the ^15N 180° pulse. Sinebell-shaped gradient pulses with a duration of 1 ms are used with gradient strengths of g1=5 G/cm, g2=6 G/cm, g3=1.2 G/cm, g4=6 G/cm, and g5=10 G/cm. The phases of some RF pulses are the same as those reported previously with φ1=+X−X, φ2=4(+X) 4(−X) and φ3=2(+X) 2(+Y) 2(−X) 2(−Y) (Millet, O., Loria, J. P., Kroenke, C. D., Pons, M., and Palmer, A. G. (2000) J.Am. Chem. Soc. 122, 2867-2877), except that the phases for the last ^15N 90° pulse, the WATERGATE sequence and the RF receiver are cycled as φ4=4(+X) 4(−X), φ5=8(+X) 8(+Y), φ6=8(−X) 8(−Y) and receiver=(+X−X−X+X) 2(−X+X+X−X) (+X−X−X+X). Phase-sensitive ^1H—^15N HSQC spectra were obtained by incrementing φ4, according to the States-TPPI scheme (Marion, D., Ikura, M., Tschudin, R., and Bax, A. (1989) J.Magn.Reson. 85, 393-). […] NMR data were collected at ^15N frequencies of 50.684 and 81.076 MHz using Bruker Avance/DRX 500 and 800 MHz NMR spectrometers. The total length of the ^15N CPMG pulse train, T (FIG. 1), is kept at a constant value of 40 ms and the total number (4N) of the ^15N CPMG 1800 pulses was set to 100.
For the specific application herein, values for koff, kon′, koff^1, koff^2, kon^−1, k1, k2, R2b(500 MHz), R2b(800 MHz), δωb, δωb1 and δωb2 (FIG. 2) were fitted as independent variables. Values kon^−2, pb, pb1, pb2, and pf=(1−pb1−pb2), with p standing for the population of the corresponding species, were derived using the condition of microscopic reversibility kijpi=kjipj, where kij denotes the exchange rate constant for the transformation of species i into species j.

[2] = target: T1, human prothrombin; settings: binding with human prothrombin; previous reports; cited from earlier work
[3] = target: T2, thrombin (Homo sapiens, UniProt P00734); settings: cited from earlier work
[4] = target: T2, thrombin; experiment: Inhibition of human thrombin; assay type: biochemical; settings: bivalent inhibitor of human thrombin
[5] = target: T2, thrombin; experiment: Proteolytic cleavage of FD22 by active thrombin; assay type: biochemical; design: in complex with human α-thrombin; settings: peptide ~0.9 mM, 50 mM sodium phosphate, 0.2 mM EDTA, pH 5.5, active thrombin added
Protocol: Titration of the thrombin-cleaved FD22 peptide was carried out as follows. The sample of FD22 was concentrated by Speed-Vac to 40 μl and 180 μl of a concentrated thrombin solution were added to give a final thrombin:peptide ratio of approximately 1:20 in 60 mM sodium phosphate buffer, 0.2 mM EDTA, 10% D2O, at pH 5.5. Additional steps of thrombin titrations were carried out by the addition of the human […]-thrombin concentrated to ˜8 mg/ml.
FD22 has the sequence of Phe-Asp45-Pro-Arg-Pro-Gln-Ser50-His-Asn-Asp-Gly-Asp55-Phe-Glu-Glu-Ile-Pro60-Glu-Glu-Tyr-Leu-Gln65 (SEQ ID NO:20) and binds to thrombin via both the anion-binding exosite-I and the catalytic active site. The addition of active thrombin to the peptide FD22 (dissolved at a concentration of ˜0.9 mM in 50 mM sodium phosphate buffer, 10% D2O, 0.2 mM EDTA, at pH 5.5), caused slow and specific proteolytic cleavage at the Arg47-Pro48 peptide bond (taking >60 hours for the cleavage to complete). Upon completion of the cleavage, the sample contains a mixture of two peptides, Phe-Asp45-Pro-Arg (FD22-N) (SEQ ID NO:17) and Pro-Gln-Ser50-His-Asn-Asp-Gly-Asp55-Phe-Glu-Glu-Ile-Pro60-Glu-Glu-Tyr-Leu-Gln65 (FD22-C) (SEQ ID NO:18) that should bind separately to the active site and the anion-binding exosite I of thrombin.

[6] = target: T3, human α-thrombin (Homo sapiens, UniProt P00734); experiment: 15N CPMG NMR relaxation dispersion of peptide ligand with human thrombin, fitting of koff; assay type: binding; settings: 288 K, two-site exchange
T3 construct: in complex with human α-thrombin

[7] = "linear" three-site exchange model, Phe56, Glu57, Ile59 simultaneously
[8] = general ("full") three-site exchange, Phe56, Glu57, Ile59 simultaneously
[9] = residue Glu57, "linear" three-site exchange model, exchange between bound states

k1 [1, 7]: 560 ± 510 s⁻¹ | kex=k1+k2 [1, 7]: 700±500 s^1 | k1 [1, 8]: 66 ± 57 s⁻¹ | k2 [1, 8]: 110 ± 130 s⁻¹ | kex=k1+k2 [1, 8]: 180 ± 150 s⁻¹ | k1 [1, 9]: 50 ± 30 s⁻¹ | k2 [1, 9]: 150 ± 70 s⁻¹
Substance: N-acetyl-*Asp-*Phe-*Glu-*Glu-*Ile-Pro-Glu-Glu-Tyr-Leu-Gln [N-acetyl-Hir(55-65), anti-thrombin peptide]
Kd [2]: 100 to 300 µM | affinity for human thrombin compared with the same site on human prothrombin [3]: higher affinity

IC50 [4]: ~0.02 µM | time for the cleavage at the Arg47-Pro48 peptide bond to complete [5]: > 60 h
Substance: Phe-Asp45-Pro-Arg-Pro-Gln-Ser50-His-Asn-Asp-Gly-Asp55-Phe-Glu-Glu-Ile-Pro60-Glu-Glu-Tyr-Leu-Gln65 (FDPRPQSHNDGDFEEIPEEYLQ; Anti-thrombin peptide) [FD22]

koff ([6]; residue Leu64 (FD22-C fragment), simultaneous fit at three α-thrombin concentrations): ~400 s⁻¹ | koff ([6]; residue Phe56 (FD22-C fragment), highest α-thrombin concentration only): ~400 s⁻¹ | koff ([6]; residue Tyr63 (FD22-C fragment), simultaneous fit at three α-thrombin concentrations): ~100 s⁻¹
Substance: Pro-Gln-Ser50-His-Asn-Asp-Gly-Asp55-Phe-Glu-Glu-Ile-Pro60-Glu-Glu-Tyr-Leu-Gln65 (PQSHNDGDFEEIPEEYLQ; Anti-thrombin peptide) [FD22-C]
